Values of other authors, collected in patent publication US20230127008A1, “STAT3-TARGETED BASE EDITOR THERAPEUTICS FOR THE TREATMENT OF MELANOMA AND OTHER CANCERS” (The Broad Institute, Inc., priority 2020, published 2023).

Tested on: DNA
Settings: SpCas9 mutation relative to SEQ ID NO: 74; UniProtKB-Q99ZW2 entry

B1: 175-307 deletion: SpCas9 mutation relative to canonical SpCas9, SEQ ID NO: 74 (protein)
chain: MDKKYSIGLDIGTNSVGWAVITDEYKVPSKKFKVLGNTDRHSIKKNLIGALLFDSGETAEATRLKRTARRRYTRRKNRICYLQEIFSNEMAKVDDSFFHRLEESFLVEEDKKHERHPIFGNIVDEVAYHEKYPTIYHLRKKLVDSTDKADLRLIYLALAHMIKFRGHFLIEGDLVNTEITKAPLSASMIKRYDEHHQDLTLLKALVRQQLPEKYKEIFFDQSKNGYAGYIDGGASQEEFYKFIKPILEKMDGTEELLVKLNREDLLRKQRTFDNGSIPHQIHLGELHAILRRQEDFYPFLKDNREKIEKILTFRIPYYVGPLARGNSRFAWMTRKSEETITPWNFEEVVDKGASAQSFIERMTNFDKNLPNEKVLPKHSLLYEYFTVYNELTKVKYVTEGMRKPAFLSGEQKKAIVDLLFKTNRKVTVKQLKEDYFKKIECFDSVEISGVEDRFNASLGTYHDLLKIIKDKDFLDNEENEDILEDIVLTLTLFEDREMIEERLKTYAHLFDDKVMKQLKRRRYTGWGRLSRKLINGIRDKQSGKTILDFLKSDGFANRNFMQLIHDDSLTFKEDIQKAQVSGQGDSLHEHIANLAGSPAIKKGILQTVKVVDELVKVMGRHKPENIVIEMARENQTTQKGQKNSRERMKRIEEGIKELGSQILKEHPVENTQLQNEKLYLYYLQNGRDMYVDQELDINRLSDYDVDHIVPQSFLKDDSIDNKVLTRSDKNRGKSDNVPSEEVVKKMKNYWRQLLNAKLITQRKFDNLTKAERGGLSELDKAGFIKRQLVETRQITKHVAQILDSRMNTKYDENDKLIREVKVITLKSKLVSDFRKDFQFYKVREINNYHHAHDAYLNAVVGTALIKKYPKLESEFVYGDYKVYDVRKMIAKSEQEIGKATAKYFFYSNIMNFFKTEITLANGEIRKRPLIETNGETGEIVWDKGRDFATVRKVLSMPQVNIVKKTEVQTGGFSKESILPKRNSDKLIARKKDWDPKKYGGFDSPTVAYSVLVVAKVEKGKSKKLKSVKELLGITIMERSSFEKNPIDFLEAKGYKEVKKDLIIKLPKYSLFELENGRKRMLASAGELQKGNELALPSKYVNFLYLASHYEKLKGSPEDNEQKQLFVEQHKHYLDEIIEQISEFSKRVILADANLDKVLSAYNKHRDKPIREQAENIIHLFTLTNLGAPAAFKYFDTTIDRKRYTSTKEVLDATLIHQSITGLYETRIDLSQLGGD
modifications: Streptococcus pyogenes
For B1, the “decreased DNA cleavage” value is given as “About 50% decreased DNA cleavage”.
